In publication PMC9482650, “Quantitative fragmentomics allow affinity mapping of interactomes” (Nature Communications, 2022):

Tests used:
Assay in all cases: holdup assay
Set-up in all cases: key: below the threshold = too weak to quantify, mostly under pKd 3.1 to 4
SCRIB_3, Q14160 = molecular target: SCRIB_3, Q14160
DLG4_1, P78352 = molecular target: DLG4_1, P78352
MPP2, Q14168 = molecular target: T1, MPP2, Q14168
T1 sequence (Q14168 180-250, limits assumed, looked up): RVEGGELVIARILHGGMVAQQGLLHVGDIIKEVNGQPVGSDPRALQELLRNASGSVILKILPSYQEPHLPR

ARHGEF12, Q9NZN5-2 = molecular target: ARHGEF12, Q9NZN5-2
ARHGEF12, Q9NZN5-2, sequence (Q9NZN5 other isoform, or with tags, fused parts or gaps): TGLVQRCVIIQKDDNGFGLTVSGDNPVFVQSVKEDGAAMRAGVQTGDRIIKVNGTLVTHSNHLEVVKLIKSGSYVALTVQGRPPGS

DFNB31_1, Q9P202 = molecular target: T2, DFNB31_1, Q9P202
T2 sequence (Q9P202 135-233, limits assumed, looked up): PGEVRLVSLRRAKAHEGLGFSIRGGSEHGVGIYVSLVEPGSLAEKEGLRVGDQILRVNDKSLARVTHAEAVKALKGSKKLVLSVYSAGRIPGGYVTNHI

HTRA4, P83105 = molecular target: T3, HTRA4, P83105
T3 sequence (P83105 378-476, limits assumed, looked up): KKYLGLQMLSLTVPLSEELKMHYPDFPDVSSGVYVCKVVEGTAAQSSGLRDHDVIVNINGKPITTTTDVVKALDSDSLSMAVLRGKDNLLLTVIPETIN

LDB3, O75112 = molecular target: LDB3, O75112
LDB3, O75112, sequence (O75112 1-94): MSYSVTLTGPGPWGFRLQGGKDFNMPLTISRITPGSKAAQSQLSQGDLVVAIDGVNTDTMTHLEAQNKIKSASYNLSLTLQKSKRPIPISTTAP

APBA1_1, Q02410 = molecular target: T4, APBA1_1, Q02410
T4 sequence (Q02410 651-752, limits assumed, looked up): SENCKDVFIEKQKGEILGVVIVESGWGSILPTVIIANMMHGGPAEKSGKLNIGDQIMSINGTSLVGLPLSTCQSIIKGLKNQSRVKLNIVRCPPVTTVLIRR

Inadl_9, Q8NI35 = molecular target: Inadl_9, Q8NI35
Inadl_9, Q8NI35, sequence (Q8NI35 1530-1615): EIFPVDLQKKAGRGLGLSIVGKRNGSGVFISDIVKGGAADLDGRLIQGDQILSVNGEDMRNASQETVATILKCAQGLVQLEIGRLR

MPP7, Q5T2T1 = molecular target: T5, MPP7, Q5T2T1
T5 sequence (Q5T2T1 134-230, limits assumed, looked up): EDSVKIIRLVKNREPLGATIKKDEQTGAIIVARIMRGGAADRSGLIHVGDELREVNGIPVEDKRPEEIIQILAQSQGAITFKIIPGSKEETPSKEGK

PDLIM1, O00151 = molecular target: PDLIM1, O00151
PDLIM1, O00151, sequence (O00151 1-87): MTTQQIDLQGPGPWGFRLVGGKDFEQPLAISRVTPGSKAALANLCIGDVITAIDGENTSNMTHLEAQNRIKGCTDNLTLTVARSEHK

SCRIB_2, Q14160 = molecular target: SCRIB_2, Q14160
SCRIB_2, Q14160, sequence (Q14160 857-960): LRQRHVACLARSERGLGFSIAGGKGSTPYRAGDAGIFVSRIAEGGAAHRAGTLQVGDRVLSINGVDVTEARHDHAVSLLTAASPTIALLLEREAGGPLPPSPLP

MAST1, Q9Y2H9 = molecular target: MAST1, Q9Y2H9
MAST1, Q9Y2H9, sequence (Q9Y2H9 962-1065): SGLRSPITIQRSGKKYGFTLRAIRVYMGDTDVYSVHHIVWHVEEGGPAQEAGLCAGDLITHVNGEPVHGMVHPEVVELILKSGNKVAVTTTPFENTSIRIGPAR

TJP3_3, O95049 = molecular target: T6, TJP3_3, O95049
T6 sequence (O95049 375-456, limits assumed, looked up): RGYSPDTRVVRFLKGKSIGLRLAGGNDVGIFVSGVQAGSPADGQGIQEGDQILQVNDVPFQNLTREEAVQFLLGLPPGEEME

MPP6, Q9NZW5 = molecular target: T7, MPP6, Q9NZW5
T7 sequence (Q9NZW5 125-219, limits assumed, looked up): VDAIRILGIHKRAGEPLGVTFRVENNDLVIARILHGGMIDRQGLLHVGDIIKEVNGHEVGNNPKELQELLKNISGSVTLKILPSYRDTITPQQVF

NHERF3_1, Q5T2W1 = molecular target: T8, NHERF3_1, Q5T2W1
T8 sequence (Q5T2W1 4-100, limits assumed, looked up): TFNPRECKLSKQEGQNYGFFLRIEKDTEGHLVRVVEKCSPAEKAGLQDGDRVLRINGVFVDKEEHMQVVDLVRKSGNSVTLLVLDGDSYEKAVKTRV

NHERF4_1, Q86UT5-2 = molecular target: NHERF4_1, Q86UT5-2
NHERF4_1, Q86UT5-2, sequence (Q86UT5 other isoform, or with tags, fused parts or gaps): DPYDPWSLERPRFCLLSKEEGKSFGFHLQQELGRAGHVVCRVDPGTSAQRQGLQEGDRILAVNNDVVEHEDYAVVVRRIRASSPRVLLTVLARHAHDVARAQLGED

FRMPD1, Q5SYB0 = molecular target: T9, FRMPD1, Q5SYB0
T9 sequence (Q5SYB0 52-145, limits assumed, looked up): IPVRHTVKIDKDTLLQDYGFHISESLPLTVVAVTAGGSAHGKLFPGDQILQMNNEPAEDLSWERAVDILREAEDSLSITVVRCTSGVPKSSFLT

DVL3, Q92997 = molecular target: T10, DVL3, Q92997
T10 sequence (Q92997 244-331, limits assumed, looked up): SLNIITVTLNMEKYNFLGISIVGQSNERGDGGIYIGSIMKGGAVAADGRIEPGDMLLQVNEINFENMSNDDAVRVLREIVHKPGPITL

Inadl_2, Q8NI35 = molecular target: Inadl_2, Q8NI35
Inadl_2, Q8NI35, sequence (Q8NI35 238-335): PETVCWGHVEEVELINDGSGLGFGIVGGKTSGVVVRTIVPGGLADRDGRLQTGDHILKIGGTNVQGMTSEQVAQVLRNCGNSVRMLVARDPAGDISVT

LNX1_2, Q8TBB1 = molecular target: LNX1_2, Q8TBB1
LNX1_2, Q8TBB1, sequence (Q8TBB1 371-470): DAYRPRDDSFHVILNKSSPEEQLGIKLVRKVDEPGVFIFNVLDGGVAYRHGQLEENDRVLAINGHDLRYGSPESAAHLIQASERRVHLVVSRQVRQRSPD

AHNAK1, Q09666 = molecular target: AHNAK1, Q09666
AHNAK1, Q09666, sequence (Q09666 4-100): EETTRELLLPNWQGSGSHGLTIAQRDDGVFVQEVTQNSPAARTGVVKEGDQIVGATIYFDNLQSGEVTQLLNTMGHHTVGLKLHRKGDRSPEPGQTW

PCLO, Q9Y6V0 = molecular target: T11, PCLO, Q9Y6V0
T11 sequence (Q9Y6V0 4491-4600, limits assumed, looked up): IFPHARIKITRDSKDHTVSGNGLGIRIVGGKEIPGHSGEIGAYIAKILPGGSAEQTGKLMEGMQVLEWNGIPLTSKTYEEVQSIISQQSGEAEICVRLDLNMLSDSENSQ

NHERF3_3, Q5T2W1 = molecular target: T12, NHERF3_3, Q5T2W1
T12 sequence (Q5T2W1 238-333, limits assumed, looked up): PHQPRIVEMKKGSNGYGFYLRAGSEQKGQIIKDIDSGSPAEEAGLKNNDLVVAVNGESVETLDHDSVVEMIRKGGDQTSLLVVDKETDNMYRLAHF

NHERF4_2, Q86UT5 = molecular target: NHERF4_2, Q86UT5
NHERF4_2, Q86UT5, sequence (Q86UT5 220-308): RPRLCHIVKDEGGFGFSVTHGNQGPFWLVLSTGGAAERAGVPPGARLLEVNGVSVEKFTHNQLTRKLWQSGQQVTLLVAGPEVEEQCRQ

MAST2, Q6P0Q8 = molecular target: MAST2, Q6P0Q8
MAST2, Q6P0Q8, sequence (Q6P0Q8 1099-1202): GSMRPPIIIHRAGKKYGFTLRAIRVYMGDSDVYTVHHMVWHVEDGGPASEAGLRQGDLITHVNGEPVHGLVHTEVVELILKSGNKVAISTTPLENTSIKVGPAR

[1] = plain residues with an end cap or a label only (N-terminal biotin on a linker: ahx)
[2] = plain residues with an end cap or a label only (N-terminal biotin on a linker: ttds)

SCRIB_3, Q14160, sequence (Q14160 999-1103): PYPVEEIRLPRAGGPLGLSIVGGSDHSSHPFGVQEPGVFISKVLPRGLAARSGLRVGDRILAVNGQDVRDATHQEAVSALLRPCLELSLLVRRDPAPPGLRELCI
DLG4_1, P78352, sequence (P78352 62-152): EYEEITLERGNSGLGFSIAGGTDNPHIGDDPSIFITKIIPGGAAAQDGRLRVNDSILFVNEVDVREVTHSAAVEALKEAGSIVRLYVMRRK

TEAKLTETNA [MYO18A, Q92614]
pKd (SCRIB_3, Q14160; [1]): below the threshold
pKd (DLG4_1, P78352; [1]): below the threshold
pKd (MPP2, Q14168; [1]): below the threshold
pKd (ARHGEF12, Q9NZN5-2; [1]): below the threshold
pKd (DFNB31_1, Q9P202; [1]): below the threshold
pKd (HTRA4, P83105; [1]): below the threshold
pKd (LDB3, O75112; [1]): below the threshold
pKd (APBA1_1, Q02410; [1]): below the threshold
pKd (Inadl_9, Q8NI35; [1]): below the threshold
pKd (MPP7, Q5T2T1; [1]): below the threshold
pKd (PDLIM1, O00151; [1]): below the threshold
pKd (SCRIB_2, Q14160; [1]): below the threshold
pKd (MAST1, Q9Y2H9; [1]): below the threshold
pKd (TJP3_3, O95049; [1]): below the threshold
pKd (MPP6, Q9NZW5; [1]): below the threshold
pKd (NHERF3_1, Q5T2W1; [1]): below the threshold
pKd (NHERF4_1, Q86UT5-2; [1]): below the threshold
pKd (FRMPD1, Q5SYB0; [1]): below the threshold
pKd (DVL3, Q92997; [1]): below the threshold
pKd (Inadl_2, Q8NI35; [1]): below the threshold
pKd (LNX1_2, Q8TBB1; [1]): below the threshold
pKd (AHNAK1, Q09666; [1]): below the threshold
pKd (PCLO, Q9Y6V0; [1]): below the threshold
pKd (NHERF3_3, Q5T2W1; [1]): below the threshold
pKd (NHERF4_2, Q86UT5; [1]): below the threshold
pKd (MAST2, Q6P0Q8; [1]): below the threshold

VLRLQSETSV [VANGL1, Q8TAA9]
pKd (SCRIB_3, Q14160; [2]): 4.54
pKd (DLG4_1, P78352; [2]): 4.4
pKd (MPP2, Q14168; [2]): below the threshold
pKd (ARHGEF12, Q9NZN5-2; [2]): 3.7
pKd (DFNB31_1, Q9P202; [2]): 4.03
pKd (HTRA4, P83105; [2]): below the threshold
pKd (LDB3, O75112; [2]): below the threshold
pKd (APBA1_1, Q02410; [2]): below the threshold
pKd (Inadl_9, Q8NI35; [2]): below the threshold
pKd (MPP7, Q5T2T1; [2]): below the threshold
pKd (PDLIM1, O00151; [2]): below the threshold
pKd (SCRIB_2, Q14160; [2]): 4.72
pKd (MAST1, Q9Y2H9; [2]): below the threshold
pKd (TJP3_3, O95049; [2]): below the threshold
pKd (MPP6, Q9NZW5; [2]): below the threshold
pKd (NHERF3_1, Q5T2W1; [2]): 3.98
pKd (NHERF4_1, Q86UT5-2; [2]): below the threshold
pKd (FRMPD1, Q5SYB0; [2]): below the threshold
pKd (DVL3, Q92997; [2]): below the threshold
pKd (Inadl_2, Q8NI35; [2]): below the threshold
pKd (LNX1_2, Q8TBB1; [2]): below the threshold
pKd (AHNAK1, Q09666; [2]): below the threshold
pKd (PCLO, Q9Y6V0; [2]): below the threshold
pKd (NHERF3_3, Q5T2W1; [2]): below the threshold
pKd (NHERF4_2, Q86UT5; [2]): below the threshold
pKd (MAST2, Q6P0Q8; [2]): 5.56

GQDSREETQL [KCNT2, Q6UVM3]
pKd (SCRIB_3, Q14160; [2]): 5.07
pKd (DLG4_1, P78352; [2]): below the threshold
pKd (MPP2, Q14168; [2]): below the threshold
pKd (ARHGEF12, Q9NZN5-2; [2]): 4.67
pKd (DFNB31_1, Q9P202; [2]): 3.82
pKd (HTRA4, P83105; [2]): below the threshold
pKd (LDB3, O75112; [2]): below the threshold
pKd (APBA1_1, Q02410; [2]): below the threshold
pKd (Inadl_9, Q8NI35; [2]): below the threshold
pKd (MPP7, Q5T2T1; [2]): below the threshold
pKd (PDLIM1, O00151; [2]): below the threshold
pKd (SCRIB_2, Q14160; [2]): 3.83
pKd (MAST1, Q9Y2H9; [2]): 5.14
pKd (TJP3_3, O95049; [2]): below the threshold
pKd (MPP6, Q9NZW5; [2]): below the threshold
pKd (NHERF3_1, Q5T2W1; [2]): 5.47
pKd (NHERF4_1, Q86UT5-2; [2]): 4.06
pKd (FRMPD1, Q5SYB0; [2]): below the threshold
pKd (DVL3, Q92997; [2]): below the threshold
pKd (Inadl_2, Q8NI35; [2]): below the threshold
pKd (LNX1_2, Q8TBB1; [2]): below the threshold
pKd (AHNAK1, Q09666; [2]): below the threshold
pKd (PCLO, Q9Y6V0; [2]): below the threshold
pKd (NHERF3_3, Q5T2W1; [2]): below the threshold
pKd (NHERF4_2, Q86UT5; [2]): below the threshold
pKd (MAST2, Q6P0Q8; [2]): 5.91

QSARYRDTEL [TJP2, Q9UDY2]
pKd (SCRIB_3, Q14160; [2]): 4.65
pKd (DLG4_1, P78352; [2]): 3.52
pKd (MPP2, Q14168; [2]): below the threshold
pKd (ARHGEF12, Q9NZN5-2; [2]): 4.27
pKd (DFNB31_1, Q9P202; [2]): 3.57
pKd (HTRA4, P83105; [2]): below the threshold
pKd (LDB3, O75112; [2]): below the threshold
pKd (APBA1_1, Q02410; [2]): below the threshold
pKd (Inadl_9, Q8NI35; [2]): below the threshold
pKd (MPP7, Q5T2T1; [2]): below the threshold
pKd (PDLIM1, O00151; [2]): 3.69
pKd (SCRIB_2, Q14160; [2]): 3.9
pKd (MAST1, Q9Y2H9; [2]): 4.26
pKd (TJP3_3, O95049; [2]): 3.55
pKd (MPP6, Q9NZW5; [2]): below the threshold
pKd (NHERF3_1, Q5T2W1; [2]): 4.33
pKd (NHERF4_1, Q86UT5-2; [2]): 3.73
pKd (FRMPD1, Q5SYB0; [2]): below the threshold
pKd (DVL3, Q92997; [2]): below the threshold
pKd (Inadl_2, Q8NI35; [2]): below the threshold
pKd (LNX1_2, Q8TBB1; [2]): 3.52
pKd (AHNAK1, Q09666; [2]): 3.75
pKd (PCLO, Q9Y6V0; [2]): below the threshold
pKd (NHERF3_3, Q5T2W1; [2]): below the threshold
pKd (NHERF4_2, Q86UT5; [2]): below the threshold
pKd (MAST2, Q6P0Q8; [2]): 5.7
